Test [1] concerns the target T1, recombinant human TFPI (tissue factor pathway inhibitor) (human, UniProt P10646 29-304). In words: cell-based or functional assay.
Test [2] addresses T1, recombinant human TFPI (tissue factor …). In words: SPR, Biacore T-200; TFPI immobilised on CM5 chip, IgG as analyte. On the procedure:
10 mM of glycine-HCl (pH 1.5) was run at a flow rate of 30 μL/min for 30 seconds, thereby inducing the dissociation of the antibody associated with the TFPI. The affinity in terms of kinetic rate constants (Kₒₙ and Koff) and equilibrium dissociation constant
In general terms: In SPR one partner is held on a chip, and binding of the other changes the refractive index at the surface.

For test [3] the target is unchanged. Kind of test: yeast-display scFv, FACS with biotinylated TFPI. On the procedure:
The finally amplified single colonies were collected from the yeast display library, and then cultured in SD medium at 30° C. at 200 rpm for 12 hours. Then, the medium was replaced with SG medium, and the cells were cultured at 25° C. at 200 rpm for 12 hours or more, thereby expressing the antibody on the yeast surface. Next, the yeast cells recovered by centrifugation were washed with PBSF (1% BSA containing PBS) buffer, resuspended in 50 μl of PBSF buffer, and then incubated with a biotin-conjugated recombinant human TFPI protein and anti-c-myc mouse antibody (CAT. No. M4439, Sigma) at room temperature for 30 minutes. The incubated yeast cells were washed with PBSF, resuspended in 50 μl of PBSF buffer, and then incubated with FITC-conjugated anti-mouse antibody (CAT. No. F0257, Sigma) and PE-conjugated streptavidin on ice under a light-shielded condition for 15 minutes. Next, the cells were washed with PBSF buffer, resuspended in 500 μl of PBSF buffer, and then clones showing high values in the FITC and PE wavelength ranges were selected by FACS, thereby obtaining individual clones.

For test [4] the target is unchanged. In words: cell-based or functional assay. The source holds these as a separate data set.
The target is the same in test [5]. Kind of test: cell-based or functional assay. The source holds these as a separate data set.

Experimental findings from US20180030151A1 (MOGAM INSTITUTE FOR BIOMEDICAL RESEARCH, published 2018) are described below.

B1: clone T308 (antibody, human IgG4, V domains shown)
VH: EVKLVESGGGLVKPGGSLKLSCAASGFTFSNYPMSWVRQTPEKRLEWVATISNSGSYTYYPDSVKGRFTISRDNAKNTLYLQMNSLRSEDTAMYYCARQVYGNYEDFDYWGQGTTLTVSS
VL: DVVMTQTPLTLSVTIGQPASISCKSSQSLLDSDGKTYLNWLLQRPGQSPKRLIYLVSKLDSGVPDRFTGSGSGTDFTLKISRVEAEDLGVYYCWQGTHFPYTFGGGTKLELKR
Take B1: the “effect of inhibiting TFPI, FXa activity assay, Ab 10 nM” value in test [1] stood at 89%. In addition, the Kd in test [2] came out at 0.0094 nM.

B2: clone 4278 (antibody, V domains shown)
VH: EVQLVESGGGLVKPGGSLRLSCAASGFTFSKYAMNWFRQAPGKGLEWVSTITLGGSYTYYADSVDGRFTISRDNAKNSLYLQMNSLRAEDTAVYYCARQYLDGNFLMDYWGQGTLVTVSS
VL: DVVMTQTPLSLPVTLGQPASISCKSSQSLLDIDGKTYLNWLQQRPGQSPKRLIYLVSKLDSGVPDRFTGSGSGTDFTLKISRVEAEDVGVYYCWQGTHFPFTFGQGTKVEIKR
notes: scFv on yeast at selection; human IgG4/kappa IgG as purified
As for B2, the binding result in test [3] is listed as “binds”.

B3: clone 15 (antibody, V domains shown)
VH: EVQLVESGGGLVKPGGSLRLSCAASGFTFSKYAMNWFRQAPGKGLEWVSTITTGGSYTYYADSVEGRFTISRDNAKNSLYLQMNSLRAEDTAVYYCARQHPYGNFLMDYWGQGTLVTVSS
VL: DVVMTQTPLSLPVTLGQPASISCKSSPSLLDSDGKTYLNWLQQRPGQSPKRLIYLVSKLDSGVPDRFTGSGSGTDFTLKISRVEAEDVGVYYCWQGFYFPFTFGQGTKVEIKR
notes: human IgG4/kappa IgG as purified
B3: in test [3], the binding result is “binds”.

B4: clone 14 (antibody, V domains shown)
VH: EVQLVESGGGLVKPGGSLRLSCAASGFTFSKYAMNWFRQAPGKGLEWVSTITLGGSYTYYADSVDGRFTISRDNAKNSLYLQMNSLRAEDTAVYYCARQYLDGNFLMDYWGQGTLVTVSS
VL: DVVMTQTPLSLPVTLGQPASISCKSSPSLLDSDGKTYLNWLQQRPGQSPKRLIYLVSKLDSGVPDRFTGSGSGTDFTLKISRVEAEDVGVYYCWQGTYFPFTFGQGTKVEIKR
notes: as for B3
B4: in test [3], the binding result is reported as “binds”.

B5: clone 308-2 (antibody, V domains shown)
VH: EVQLVESGGGLVKPGGSLRLSCAASGFTFSSYAMNWVRQAPGKGLEWVSTITTGGSYTYYADSVQGRFTISRDNAKNSLYLQMNSLRAEDTAVYYCARQDGNFLMDYWGQGTLVTVSS
VL: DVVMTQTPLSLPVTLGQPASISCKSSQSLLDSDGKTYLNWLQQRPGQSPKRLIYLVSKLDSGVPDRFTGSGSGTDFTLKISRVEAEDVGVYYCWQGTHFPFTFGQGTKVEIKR
For the molecule B5, in test [4], the “TF/FVIIa/FXa assay % of 0 nM TFPI, 12.5 nM Ab, 50 nM TFPI” value came out at 18.5%; the “TF/FVIIa/FXa assay % of 0 nM TFPI, 50 nM Ab, 50 nM TFPI” value worked out at 102%; the “TF/FVIIa/FXa assay % of 0 nM TFPI, 100 nM Ab, 50 nM TFPI” value came to 110%; the “TF/FVIIa/FXa assay OD, 12.5 nM Ab, 50 nM TFPI” value was 0.148 OD. In addition, in test [4], the “TF/FVIIa/FXa assay OD, 25 nM Ab, 50 nM TFPI” value stood at 0.303 OD; the “TF/FVIIa/FXa assay OD, 50 nM Ab, 50 nM TFPI” value amounted to 0.816 OD; the “TF/FVIIa/FXa assay OD, 100 nM Ab, 50 nM TFPI” value stood at 0.88 OD. In test [1], the “TFPI inhibitory activity, FXa activity assay, Ab 10 nM” value was 72%; the “TFPI inhibitory activity, FXa activity assay, Ab 40 nM” value was 85%; the “TFPI inhibitory activity, TF/FVIIa/FXa complex assay, Ab 50 nM” value came to 100%; the “TFPI inhibitory activity, TF/FVIIa/FXa complex assay, Ab 100 nM” value was 100%. In test [5], the “FXa assay % of FXa alone, 0.625 nM Ab, 10 nM TFPI” value was 5%; the “FXa assay % of FXa alone, 2.5 nM Ab, 10 nM TFPI” value amounted to 8%; the “FXa assay OD, 0.625 nM Ab, 10 nM TFPI” value is 0.053 OD; the “FXa assay OD, 2.5 nM Ab, 10 nM TFPI” value is 0.078 OD. Also, in test [5], the “FXa assay OD, 10 nM Ab, 10 nM TFPI” value worked out at 0.71 OD and the “FXa assay OD, 40 nM Ab, 10 nM TFPI” value turned out to be 0.832 OD. For the same molecule, the Kd in test [2] was 0.033 nM.

B6: clone 1208 (antibody, V domains shown)
VH: EVQLVESGGGLVKPGGSLRLSCAASGFTFSSYAMNWVRQAPGKGLEWVSTITTGGSHTYYADSVEGRFTISRDNAKNSLYLQMNSLRAEDTAVYYCARQDGHFLMDYWGQGTLVTVSS
VL: DVVMTQTPLSLPVTLGQPASISCKSSQSLLDVDGKTYLNWLQQRPGQSPKRLIYLVSKLDSGVPDRFTGSGSGTDFTLKISRVEAEDVGVYYCWQGTYLPFTFGQGTKVEIKR
notes: as for B2
For B6, the binding result in test [3] was “binds”.

B7: clone 1248 (antibody, V domains shown)
VH: EVQLVESGGGLVKPGGSLRLSCAASGFTFSSYAMNWVRQAPGKGLEWVSTITTGGSHTYYADSVDGRFTISRDNAKNSLYLQMNSLRAEDTAVYYCARQDGHFLMDYWGQGTLVTVSS
VL: DVVMTQTPLSLPVTLGQPASISCKSSQSLLDIDGKTYLNWLQQRPGQSPKRLIYLVSKLDSGVPDRFTGSGSGTDFTLKISRVEAEDVGVYYCWQGTHFPFTFGQGTKVEIKR
notes: as for B2
For the molecule B7, the binding result in test [3] was “binds”.

B8: clone 4034 (antibody, V domains shown)
VH: EVQLVESGGGLVKPGGSLRLSCAASGFTFSSYAMNWVRQAPGKGLEWVSTITTGGSHTYYADSVEGRFTISRDNAKNSLYLQMNSLRAEDTAVYYCARQDGYFLMDYWGQGTLVTVSS
VL: DVVMTQTPLSLPVTLGQPASISCKSSQSLLDIDGKTYLNWLQQRPGQSPKRLIYLVSKLDSGVPDRFTGSGSGTDFTLKISRVEAEDVGVYYCWQGTHFPFTFGQGTKVEIKR
notes: as for B2
Regarding B8, the binding result in test [3] is given as “binds”.

B9: clone 4011 (antibody, V domains shown)
VH: EVQLVESGGGLVKPGGSLRLSCAASGFTFYSYAMNWVRQAPGKGLEWVSTITTGGSHTYYADSVEGRFTISRDNAKNSLYLQMNSLRAEDTAVYYCARQDGNFLMDYWGQGTLVTVSS
VL: DVVMTQTPLSLPVTLGQPASISCKSSQSLLDVDGKTYLNWLQQRPGQSPKRLIYLVSKLDSGVPDRFTGSGSGTDFTLKISRVEAEDVGVYYCWQGTHLPFTFGQGTKVEIKR
notes: as for B2
As for B9, in test [3], the binding result is recorded as “binds”.

B10: clone 1223 (antibody, V domains shown)
VH: EVQLVESGGGLVKPGGSLRLSCAASGFTFSSYAMNWVRQAPGKGLEWVSTITTGGSYTYYADSVEGRFTISRDNAKNSLYLQMNSLRAEDTAVYYCARQDGHFLMDYWGQGTLVTVSS
VL: DVVMTQTPLSLPVTLGQPASISCKSSQSLLDIDGKTYLNWLQQRPGQSPKRLIYLVSKLDSGVPDRFTGSGSGTDFTLKISRVEAEDVGVYYCWQGTHFPFTFGQGTKVEIKR
notes: as for B2
On to B10, for which, in test [3], the binding result is “binds”.

B11: clone 1232 (antibody, V domains shown)
VH: EVQLVESGGGLVKPGGSLRLSCAASGFTFSSYAMNWVRQAPGKGLEWVSTITTGGSYTYYADSVDGRFTISRDNAKNSLYLQMNSLRAEDTAVYYCARQDGHFLMDYWGQGTLVTVSS
VL: DVVMTQTPLSLPVTLGQPASISCKSSQSLLDVDGKTYLNWLQQRPGQSPKRLIYLVSKLDSGVPDRFTGSGSGTDFTLKISRVEAEDVGVYYCWQGTHFPFTFGQGTKVEIKR
notes: as for B2
As for B11, the binding result in test [3] is “binds”.

B12: clone 1243 (antibody, V domains shown)
VH: EVQLVESGGGLVKPGGSLRLSCAASGFTFSSYAMNWVRQAPGKGLEWVSTITTGGSHTYYADSVHGRFTISRDNAKNSLYLQMNSLRAEDTAVYYCARQDGHFLMDYWGQGTLVTVSS
VL: DVVMTQTPLSLPVTLGQPASISCKSSQSLLDIDGKTYLNWLQQRPGQSPKRLIYLVSKLDSGVPDRFTGSGSGTDFTLKISRVEAEDVGVYYCWQGTHFPFTFGQGTKVEIKR
notes: as for B2
With B12, the binding result in test [3] is reported as “binds”.

B13: clone 4041 (antibody, V domains shown)
VH: EVQLVESGGGLVKPGGSLRLSCAASGFTFSSYAMSWVRQAPGKGLEWVSTITTGGSHTYYADSVEGRFTISRDNAKNSLYLQMNSLRAEDTAVYYCARQDGYFLMDYWGQGTLVTVSS
VL: DVVMTQTPLSLPVTLGQPASISCKSSQSLLDVDGKTYLNWLQQRPGQSPKRLIYLVSKLDSGVPDRFTGSGSGTDFTLKISRVEAEDVGVYYCWQGTHFPFTFGQGTKVEIKR
notes: as for B2
Regarding B13, the binding result in test [3] is reported as “binds”.

As usually defined, the Kd is the constant that tells how readily two partners part at equilibrium.
